# Results reported in patent US20260001928A1 (CORTERIA PHARMACEUTICALS, priority 2022, published 2026).
# *1 amine or outer side, *2 acyl side, *3 side chain or, on linkers, in order; H or OH if unused. Where no end group is shown, it is not given here. Side-chain parts run from the residue outwards. [ ]: non-standard residue; d: D form. The star is where a group is joined. C20 diacid = O=C(O)CCCCCCCCCCCCCCCCCCC(=O)*; C16 diacid = O=C(O)CCCCCCCCCCCCCCC(=O)*; γGlu = O=C(O)[C@H](CCC(=O)[*:2])N[*:1]; NMeI = CC[C@H](C)[C@H](NC)C(=O)O; Pentanoyl = CCCCC(=O)*; Aib = CC(C)(N)C(=O)O
# T1: CRF1R receptor (UniProt P34998 24-415, limits assumed)
# T1 sequence (looked up): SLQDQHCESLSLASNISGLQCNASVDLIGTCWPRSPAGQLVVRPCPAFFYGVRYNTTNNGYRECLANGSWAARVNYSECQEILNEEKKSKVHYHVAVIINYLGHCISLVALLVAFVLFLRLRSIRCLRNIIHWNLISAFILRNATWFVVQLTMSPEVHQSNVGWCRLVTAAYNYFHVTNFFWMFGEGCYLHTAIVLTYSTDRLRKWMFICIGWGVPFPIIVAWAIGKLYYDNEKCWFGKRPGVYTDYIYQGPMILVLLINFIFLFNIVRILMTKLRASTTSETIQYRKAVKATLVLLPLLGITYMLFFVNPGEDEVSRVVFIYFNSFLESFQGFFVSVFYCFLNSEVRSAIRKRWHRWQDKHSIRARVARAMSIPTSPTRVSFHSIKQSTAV
# Tests used:
# CRF1R receptor = target: T1, CRF1R receptor; assay: cell-based or functional assay
# [1] = target: human corticotropin-releasing factor 2a (CRF2a receptor) (human), Q13324; assay: cell-based or functional assay
# human corticotropin-releasing factor 2a (CRF2a receptor) (human), Q13324, sequence (Q13324 20-411): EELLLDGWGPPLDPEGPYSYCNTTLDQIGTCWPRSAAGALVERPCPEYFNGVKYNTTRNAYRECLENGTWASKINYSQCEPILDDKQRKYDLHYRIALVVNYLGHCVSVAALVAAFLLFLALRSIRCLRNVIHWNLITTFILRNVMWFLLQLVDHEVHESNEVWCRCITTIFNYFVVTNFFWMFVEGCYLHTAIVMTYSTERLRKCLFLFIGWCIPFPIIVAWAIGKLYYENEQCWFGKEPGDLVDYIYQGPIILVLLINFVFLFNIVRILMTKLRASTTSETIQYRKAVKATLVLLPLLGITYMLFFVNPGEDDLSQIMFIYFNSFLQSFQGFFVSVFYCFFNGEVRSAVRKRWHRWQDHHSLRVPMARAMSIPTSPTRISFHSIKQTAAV
Binder,EC50 (CRF1R receptor),Emax (% I) (CRF1R receptor),EC50 [nM] (cAMP) [1]
IVLSLD[dV]PIKLK([γGlu-C16 diacid])QILLKQERQKKQREQAEKN[Aib]QILEQV-NH2 [SEQ ID NO 10],> 250 nM,26%,0.17 nM
[NMeI]VLSLD[dV]PIKLK([γGlu-C20 diacid])KILLEQEKQKKQREQAETN[Aib]QILAQV-NH2 (N-terminus assumed; SMILES CC[C@H](C)[C@H](NC)C(=O)N[C@H](C(=O)N[C@@H](CC(C)C)C(=O)N[C@@H](CO)C(=O)N[C@@H](CC(C)C)C(=O)N[C@@H](CC(=O)O)C(=O)N[C@@H](C(=O)N1CCC[C@H]1C(=O)N[C@H](C(=O)N[C@@H](CCCCN)C(=O)N[C@@H](CC(C)C)C(=O)N[C@@H](CCCCNC(=O)CC[C@H](NC(=O)CCCCCCCCCCCCCCCCCCC(=O)O)C(=O)O)C(=O)N[C@@H](CCCCN)C(=O)N[C@H](C(=O)N[C@@H](CC(C)C)C(=O)N[C@@H](CC(C)C)C(=O)N[C@@H](CCC(=O)O)C(=O)N[C@@H](CCC(N)=O)C(=O)N[C@@H](CCC(=O)O)C(=O)N[C@@H](CCCCN)C(=O)N[C@@H](CCC(N)=O)C(=O)N[C@@H](CCCCN)C(=O)N[C@@H](CCCCN)C(=O)N[C@@H](CCC(N)=O)C(=O)N[C@@H](CCCNC(=N)N)C(=O)N[C@@H](CCC(=O)O)C(=O)N[C@@H](CCC(N)=O)C(=O)N[C@@H](C)C(=O)N[C@@H](CCC(=O)O)C(=O)N[C@H](C(=O)N[C@@H](CC(N)=O)C(=O)NC(C)(C)C(=O)N[C@@H](CCC(N)=O)C(=O)N[C@H](C(=O)N[C@@H](CC(C)C)C(=O)N[C@@H](C)C(=O)N[C@@H](CCC(N)=O)C(=O)N[C@H](C(N)=O)C(C)C)[C@@H](C)CC)[C@@H](C)O)[C@@H](C)CC)[C@@H](C)CC)C(C)C)C(C)C) [SEQ ID NO 214],–,34%,0.12 nM
[NMeI]VLSLD[dV]PIKLK([γGlu-C20 diacid])KILLEQEKQK[Aib]QREQAETN[Aib]QILAQV-NH2 (N-terminus assumed; SMILES CC[C@H](C)[C@H](NC)C(=O)N[C@H](C(=O)N[C@@H](CC(C)C)C(=O)N[C@@H](CO)C(=O)N[C@@H](CC(C)C)C(=O)N[C@@H](CC(=O)O)C(=O)N[C@@H](C(=O)N1CCC[C@H]1C(=O)N[C@H](C(=O)N[C@@H](CCCCN)C(=O)N[C@@H](CC(C)C)C(=O)N[C@@H](CCCCNC(=O)CC[C@H](NC(=O)CCCCCCCCCCCCCCCCCCC(=O)O)C(=O)O)C(=O)N[C@@H](CCCCN)C(=O)N[C@H](C(=O)N[C@@H](CC(C)C)C(=O)N[C@@H](CC(C)C)C(=O)N[C@@H](CCC(=O)O)C(=O)N[C@@H](CCC(N)=O)C(=O)N[C@@H](CCC(=O)O)C(=O)N[C@@H](CCCCN)C(=O)N[C@@H](CCC(N)=O)C(=O)N[C@@H](CCCCN)C(=O)NC(C)(C)C(=O)N[C@@H](CCC(N)=O)C(=O)N[C@@H](CCCNC(=N)N)C(=O)N[C@@H](CCC(=O)O)C(=O)N[C@@H](CCC(N)=O)C(=O)N[C@@H](C)C(=O)N[C@@H](CCC(=O)O)C(=O)N[C@H](C(=O)N[C@@H](CC(N)=O)C(=O)NC(C)(C)C(=O)N[C@@H](CCC(N)=O)C(=O)N[C@H](C(=O)N[C@@H](CC(C)C)C(=O)N[C@@H](C)C(=O)N[C@@H](CCC(N)=O)C(=O)N[C@H](C(N)=O)C(C)C)[C@@H](C)CC)[C@@H](C)O)[C@@H](C)CC)[C@@H](C)CC)C(C)C)C(C)C) [SEQ ID NO 215],–,19%,0.12 nM
[NMeI]VLSLD[dV]PIKLK([γGlu-C20 diacid])KILLEQEAQKKQREQAETN[Aib]QILAQV-NH2 (N-terminus assumed; SMILES CC[C@H](C)[C@H](NC)C(=O)N[C@H](C(=O)N[C@@H](CC(C)C)C(=O)N[C@@H](CO)C(=O)N[C@@H](CC(C)C)C(=O)N[C@@H](CC(=O)O)C(=O)N[C@@H](C(=O)N1CCC[C@H]1C(=O)N[C@H](C(=O)N[C@@H](CCCCN)C(=O)N[C@@H](CC(C)C)C(=O)N[C@@H](CCCCNC(=O)CC[C@H](NC(=O)CCCCCCCCCCCCCCCCCCC(=O)O)C(=O)O)C(=O)N[C@@H](CCCCN)C(=O)N[C@H](C(=O)N[C@@H](CC(C)C)C(=O)N[C@@H](CC(C)C)C(=O)N[C@@H](CCC(=O)O)C(=O)N[C@@H](CCC(N)=O)C(=O)N[C@@H](CCC(=O)O)C(=O)N[C@@H](C)C(=O)N[C@@H](CCC(N)=O)C(=O)N[C@@H](CCCCN)C(=O)N[C@@H](CCCCN)C(=O)N[C@@H](CCC(N)=O)C(=O)N[C@@H](CCCNC(=N)N)C(=O)N[C@@H](CCC(=O)O)C(=O)N[C@@H](CCC(N)=O)C(=O)N[C@@H](C)C(=O)N[C@@H](CCC(=O)O)C(=O)N[C@H](C(=O)N[C@@H](CC(N)=O)C(=O)NC(C)(C)C(=O)N[C@@H](CCC(N)=O)C(=O)N[C@H](C(=O)N[C@@H](CC(C)C)C(=O)N[C@@H](C)C(=O)N[C@@H](CCC(N)=O)C(=O)N[C@H](C(N)=O)C(C)C)[C@@H](C)CC)[C@@H](C)O)[C@@H](C)CC)[C@@H](C)CC)C(C)C)C(C)C) [SEQ ID NO 216],80.3 nM,61%,0.05 nM
[NMeI]VLSLD[dV]PIKLK([γGlu-C20 diacid])KILLEQEKQKAQREQAETN[Aib]QILAQV-NH2 (N-terminus assumed; SMILES CC[C@H](C)[C@H](NC)C(=O)N[C@H](C(=O)N[C@@H](CC(C)C)C(=O)N[C@@H](CO)C(=O)N[C@@H](CC(C)C)C(=O)N[C@@H](CC(=O)O)C(=O)N[C@@H](C(=O)N1CCC[C@H]1C(=O)N[C@H](C(=O)N[C@@H](CCCCN)C(=O)N[C@@H](CC(C)C)C(=O)N[C@@H](CCCCNC(=O)CC[C@H](NC(=O)CCCCCCCCCCCCCCCCCCC(=O)O)C(=O)O)C(=O)N[C@@H](CCCCN)C(=O)N[C@H](C(=O)N[C@@H](CC(C)C)C(=O)N[C@@H](CC(C)C)C(=O)N[C@@H](CCC(=O)O)C(=O)N[C@@H](CCC(N)=O)C(=O)N[C@@H](CCC(=O)O)C(=O)N[C@@H](CCCCN)C(=O)N[C@@H](CCC(N)=O)C(=O)N[C@@H](CCCCN)C(=O)N[C@@H](C)C(=O)N[C@@H](CCC(N)=O)C(=O)N[C@@H](CCCNC(=N)N)C(=O)N[C@@H](CCC(=O)O)C(=O)N[C@@H](CCC(N)=O)C(=O)N[C@@H](C)C(=O)N[C@@H](CCC(=O)O)C(=O)N[C@H](C(=O)N[C@@H](CC(N)=O)C(=O)NC(C)(C)C(=O)N[C@@H](CCC(N)=O)C(=O)N[C@H](C(=O)N[C@@H](CC(C)C)C(=O)N[C@@H](C)C(=O)N[C@@H](CCC(N)=O)C(=O)N[C@H](C(N)=O)C(C)C)[C@@H](C)CC)[C@@H](C)O)[C@@H](C)CC)[C@@H](C)CC)C(C)C)C(C)C) [SEQ ID NO 217],–,33%,0.09 nM
[NMeI]VLSLD[dV]PIKLK([γGlu-C20 diacid])KILLEQEKQKEQREQAETN[Aib]QILAQV-NH2 (N-terminus assumed; SMILES CC[C@H](C)[C@H](NC)C(=O)N[C@H](C(=O)N[C@@H](CC(C)C)C(=O)N[C@@H](CO)C(=O)N[C@@H](CC(C)C)C(=O)N[C@@H](CC(=O)O)C(=O)N[C@@H](C(=O)N1CCC[C@H]1C(=O)N[C@H](C(=O)N[C@@H](CCCCN)C(=O)N[C@@H](CC(C)C)C(=O)N[C@@H](CCCCNC(=O)CC[C@H](NC(=O)CCCCCCCCCCCCCCCCCCC(=O)O)C(=O)O)C(=O)N[C@@H](CCCCN)C(=O)N[C@H](C(=O)N[C@@H](CC(C)C)C(=O)N[C@@H](CC(C)C)C(=O)N[C@@H](CCC(=O)O)C(=O)N[C@@H](CCC(N)=O)C(=O)N[C@@H](CCC(=O)O)C(=O)N[C@@H](CCCCN)C(=O)N[C@@H](CCC(N)=O)C(=O)N[C@@H](CCCCN)C(=O)N[C@@H](CCC(=O)O)C(=O)N[C@@H](CCC(N)=O)C(=O)N[C@@H](CCCNC(=N)N)C(=O)N[C@@H](CCC(=O)O)C(=O)N[C@@H](CCC(N)=O)C(=O)N[C@@H](C)C(=O)N[C@@H](CCC(=O)O)C(=O)N[C@H](C(=O)N[C@@H](CC(N)=O)C(=O)NC(C)(C)C(=O)N[C@@H](CCC(N)=O)C(=O)N[C@H](C(=O)N[C@@H](CC(C)C)C(=O)N[C@@H](C)C(=O)N[C@@H](CCC(N)=O)C(=O)N[C@H](C(N)=O)C(C)C)[C@@H](C)CC)[C@@H](C)O)[C@@H](C)CC)[C@@H](C)CC)C(C)C)C(C)C) [SEQ ID NO 218],–,24%,0.11 nM
Pentanoyl-VLSLD[dV]PIKLK([γGlu-C20 diacid])KILLEQEKQKKQREQAETN[Aib]QILAQV-NH2 (SMILES CCCCC(=O)N[C@H](C(=O)N[C@@H](CC(C)C)C(=O)N[C@@H](CO)C(=O)N[C@@H](CC(C)C)C(=O)N[C@@H](CC(=O)O)C(=O)N[C@@H](C(=O)N1CCC[C@H]1C(=O)N[C@H](C(=O)N[C@@H](CCCCN)C(=O)N[C@@H](CC(C)C)C(=O)N[C@@H](CCCCNC(=O)CC[C@H](NC(=O)CCCCCCCCCCCCCCCCCCC(=O)O)C(=O)O)C(=O)N[C@@H](CCCCN)C(=O)N[C@H](C(=O)N[C@@H](CC(C)C)C(=O)N[C@@H](CC(C)C)C(=O)N[C@@H](CCC(=O)O)C(=O)N[C@@H](CCC(N)=O)C(=O)N[C@@H](CCC(=O)O)C(=O)N[C@@H](CCCCN)C(=O)N[C@@H](CCC(N)=O)C(=O)N[C@@H](CCCCN)C(=O)N[C@@H](CCCCN)C(=O)N[C@@H](CCC(N)=O)C(=O)N[C@@H](CCCNC(=N)N)C(=O)N[C@@H](CCC(=O)O)C(=O)N[C@@H](CCC(N)=O)C(=O)N[C@@H](C)C(=O)N[C@@H](CCC(=O)O)C(=O)N[C@H](C(=O)N[C@@H](CC(N)=O)C(=O)NC(C)(C)C(=O)N[C@@H](CCC(N)=O)C(=O)N[C@H](C(=O)N[C@@H](CC(C)C)C(=O)N[C@@H](C)C(=O)N[C@@H](CCC(N)=O)C(=O)N[C@H](C(N)=O)C(C)C)[C@@H](C)CC)[C@@H](C)O)[C@@H](C)CC)[C@@H](C)CC)C(C)C)C(C)C) [SEQ ID NO 219],222 nM,48%,0.16 nM
